Results taken from patent US20210363249A1 (INNATE PHARMA, published 2021).

Tests used:
[1] = target: T1, Human Siglec-9 (human, UniProt Q9Y336 18-463); assay: flow cytometry on fresh purified human NK cells gated CD3-/CD56+, isotype control staining
T1 construct: Expressed on transfected CHO cells and YTS cells; also called huSiglec-9; CD329

[2] = target: Human Siglec-7 (human) (UniProt Q9Y286); assay: as above
[3] = target: T1, Human Siglec-9; assay: flow cytometry titration on neuraminidase-treated (desialylated) moDCs; goat F(ab')2 anti-human IgG (Fc) PE
Method: (§1) moDC were desialylated for 2 hours with 25 mU neuraminidase (Roche Diagnostics).
(§2) Binding on moDCs and neuraminidase treated moDCs was tested in a titration experiment by flow cytometry. Cells were incubated 1 h in Staining Buffer (SB) with primary antibodies at 10 ug/ml and a series of dilution of 1:10. They were washed two times with SB, then incubated 30 min with a Goat F(ab′)² Anti-Human IgG (Fc) PE (Jackson lmmunoresearch), and washed twice with SB.

[4] = target: T1, Human Siglec-9; assay: flow cytometry titration on moDC against neuraminidase-treated moDC
Method: as §1, §2

T1 sequence (Q9Y336 18-463): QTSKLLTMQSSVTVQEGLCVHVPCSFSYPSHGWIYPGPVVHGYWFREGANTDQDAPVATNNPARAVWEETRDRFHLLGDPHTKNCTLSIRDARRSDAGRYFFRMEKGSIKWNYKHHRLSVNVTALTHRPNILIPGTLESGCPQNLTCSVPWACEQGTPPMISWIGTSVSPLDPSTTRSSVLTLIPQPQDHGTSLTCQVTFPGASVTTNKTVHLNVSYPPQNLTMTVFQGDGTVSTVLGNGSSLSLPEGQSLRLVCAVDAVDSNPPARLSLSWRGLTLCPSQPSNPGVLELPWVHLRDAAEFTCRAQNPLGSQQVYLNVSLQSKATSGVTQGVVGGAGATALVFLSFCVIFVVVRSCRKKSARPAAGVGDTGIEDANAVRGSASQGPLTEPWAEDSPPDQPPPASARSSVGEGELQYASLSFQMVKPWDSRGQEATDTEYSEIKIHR
Human Siglec-7 (human), sequence (Q9Y286 19-467): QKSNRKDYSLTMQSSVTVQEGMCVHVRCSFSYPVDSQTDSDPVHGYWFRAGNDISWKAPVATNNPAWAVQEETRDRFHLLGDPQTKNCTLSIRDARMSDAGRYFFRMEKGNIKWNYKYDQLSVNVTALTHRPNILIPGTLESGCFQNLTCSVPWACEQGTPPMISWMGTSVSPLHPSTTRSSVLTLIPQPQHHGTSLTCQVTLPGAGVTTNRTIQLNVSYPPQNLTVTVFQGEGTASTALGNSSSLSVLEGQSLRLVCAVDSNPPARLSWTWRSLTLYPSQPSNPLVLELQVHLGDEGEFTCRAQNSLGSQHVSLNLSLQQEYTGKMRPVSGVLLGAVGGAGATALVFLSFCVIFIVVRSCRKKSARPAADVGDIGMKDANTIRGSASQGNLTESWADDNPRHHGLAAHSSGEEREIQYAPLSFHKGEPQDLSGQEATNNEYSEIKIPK

Molecule | EC50 (read off the curve) [3] | fold enhancement of EC50 after neuraminidase treatment of moDC [4] | further results
Isotype control - PE (antibody) | – | – | percent of NK cells in quadrant Q2 (isotype APC positive, isotype PE positive) [1]: 0.34; percent of NK cells in quadrant Q3 (isotype APC negative, isotype PE positive) [1]: 2.54
Isotype control - APC (antibody) | – | – | percent of NK cells in quadrant Q1 (isotype APC positive, isotype PE negative) [2]: 0.975; percent of NK cells in quadrant Q2 (isotype APC positive, isotype PE positive) [2]: 0.34
mAbA (antibody, V domains shown, Anti-Siglec-9) VH: QVQLQQPGAELVKPGSPVKLSCKASYFTFTSYWMHWVRQRPGQGLEWIGEINPSNGHTNYNEKFESKATLTVDRSSSTAYMQLSSLTSEDSAVFYCANGVESYDFDDALDYWGQGTSVTVSS VL: DIQMTQTTSSLSASLGDRVTISCRASQDINNYLNWYQQKPDGTIKLLIYYTSRLHSGVPSRFSGSGSGTDYSLTINNLEQEDIATYFCQQGNTLPFTFGGGTKLEIK | ~0.03 µg/mL | 10 fold | –
mAbD (antibody, V domains shown, Anti-Siglec-9) VH: QIQLVQSGPELKKPGETVKISCKASGYTFTDYSMHWVKQAPGKGLKWMGWIITETGEPTYADDFRGRFAFSLETSANTAYLQINNLKNEDTATYFCARDFDGYWGQGTTLTVSS VL: DILMTQSPASLSASVGETVTITCRASENIYSYLAWYQQKRGKSPQFLVYNAKTLTEGVPSRFRGSGSGTQFSLKINSLQPEDFGTYYCQHHYGFPWTFGGGTKLEIK | ~0.09 µg/mL | 10 fold | –
mAbC (antibody, V domains shown, Anti-Siglec-9) VH: QIQLVQSGPELKKPGETVKISCKASGYTFTNYEMNWVKEAPGKGLKWMGWINTYTGESTYADDFKGRFAFSLETSASTVYLQINNLKDEDVATYFCVRDDYGRSYGFAYWGQGTLVTVSA VL: NIVLTQSPASLTVSLGQRANISCRASESVDSYGNSFMHWYQQKPGQPPKLLIYLASKLESGVPARFSGSGSRTDFTLTIDPVETDDAATYYCHQNNEDPPWTFGGGTKLEIK | ~0.03 µg/mL | 10 fold | –
